Publication PMC5998137, “Regulation of the β-hemolysin gene cluster of Streptococcus anginosus by CcpA”

Biological target: CcpA (Streptococcus anginosus, UniProt A0A412PPL7 1-334)
Assay: EMSA; 0.5-8 µg CcpA, 5 pmol probe; no HPr or fructose-1,6-bisphosphate; 500-fold unlabeled creC inhibits the shift
Details: protein: recombinant; tags: N-terminal His6; chain copies: 2; label: 5' IRDye700 on strand 1 (probe); blunt

B1: creC (dsDNA)
DNA 1: GTTTACGCGAAAGCGCTTTTTTTATATA
DNA 2: TATATAAAAAAAGCGCTTTCGCGTAAAC
B1: binds.
